According to article PMC10767699, “Custom Design of a Humidifier Chamber for InMeso Crystallization” (Crystal Growth & Design, 2023):

Target: the molecule itself
Test: crystal structure; in meso (monoolein mesophase) crystallization of apo GltTk, 21 °C; space groups H3_(2) and P6_(3)22; one protomer in the asymmetric unit, trimer generated by crystal symmetry

B1: transmembrane aspartate transporter GltTk from Thermococcus kodakarensis (natural protein)
chain: MGKSLLRRYLDYPVLWKILWGLVLGAVFGLIAGHFGYAGAVKTYIKPFGDLFVRLLKMLVMPIVLASLVVGAASISPARLGRVGVKIVVYYLATSAMAVFFGLIVGRLFNVGANVNLGSGTGKAIEAQPPSLVQTLLNIVPTNPFASLAKGEVLPVIFFAIILGIAITYLMNRNEERVRKSAETLLRVFDGLAEAMYLIVGGVMQYAPIGVFALIAYVMAEQGVRVVGPLAKVVGAVYTGLFLQIVITYFILLKVFGIDPIKFIRKAKDAMITAFVTRSSSGTLPVTMRVAEEEMGVDKGIFSFTLPLGATINMDGTALYQGVTVLFVANAIGHPLTLGQQLVVVLTAVLASIGTAGVPGAGAIMLAMVLQSVGLDLTPGSPVALAYAMILGIDAILDMGRTMVNVTGDLAGTVIVAKTEKELDESKWISHHHHHHHH
**Q.** For B1, which “stoichiometry N” value is on record?
**A.** Its value is 3.
